Results from article PMC9482650, “Quantitative fragmentomics allow affinity mapping of interactomes” (Nature Communications, 2022).

Legend:
Assay in all cases: holdup assay
Set-up in all cases: key: below the threshold = too weak to quantify, mostly under pKd 3.1 to 4
DLG5_1, Q8TDM6 = molecular target: DLG5_1, Q8TDM6
MPDZ_5, O75970 = molecular target: T1, MPDZ_5, O75970
T1 sequence (O75970 695-796, limits assumed, looked up): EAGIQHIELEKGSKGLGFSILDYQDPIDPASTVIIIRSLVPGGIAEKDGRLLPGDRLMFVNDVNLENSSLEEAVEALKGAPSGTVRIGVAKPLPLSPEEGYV

SCRIB_1, Q14160 = molecular target: SCRIB_1, Q14160
MAGI2_4, Q86UL8 = molecular target: MAGI2_4, Q86UL8
PARD3B_1, Q8TEW8 = molecular target: T2, PARD3B_1, Q8TEW8
T2 sequence (Q8TEW8 196-299, limits assumed, looked up): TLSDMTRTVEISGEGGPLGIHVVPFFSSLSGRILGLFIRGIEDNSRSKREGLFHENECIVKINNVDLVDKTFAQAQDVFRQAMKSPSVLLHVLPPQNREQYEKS

Inadl_9, Q8NI35 = molecular target: Inadl_9, Q8NI35
NHERF4_2, Q86UT5 = molecular target: NHERF4_2, Q86UT5
NHERF4_1, Q86UT5-2 = molecular target: NHERF4_1, Q86UT5-2
RADIL, Q96JH8 = molecular target: T3, RADIL, Q96JH8
T3 sequence (Q96JH8 971-1071, limits assumed, looked up): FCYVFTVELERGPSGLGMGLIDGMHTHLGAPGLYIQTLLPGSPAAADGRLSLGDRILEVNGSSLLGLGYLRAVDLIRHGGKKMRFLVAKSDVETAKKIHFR

IL16_1, Q14005 = molecular target: IL16_1, Q14005
GOPC, Q9HD26 = molecular target: GOPC, Q9HD26
LAP2, Q96RT1 = molecular target: LAP2, Q96RT1
APBA1_1, Q02410 = molecular target: T4, APBA1_1, Q02410
T4 sequence (Q02410 651-752, limits assumed, looked up): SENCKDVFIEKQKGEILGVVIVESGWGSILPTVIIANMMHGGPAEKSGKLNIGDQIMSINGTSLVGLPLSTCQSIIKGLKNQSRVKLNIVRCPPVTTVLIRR

AHNAK1, Q09666 = molecular target: AHNAK1, Q09666
RAPGEF6, Q8TEU7 = molecular target: T5, RAPGEF6, Q8TEU7
T5 sequence (Q8TEU7 525-625, limits assumed, looked up): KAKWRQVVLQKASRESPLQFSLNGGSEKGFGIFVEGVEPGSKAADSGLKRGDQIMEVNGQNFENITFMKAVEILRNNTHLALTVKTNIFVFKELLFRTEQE

GRASP, Q7Z6J2 = molecular target: GRASP, Q7Z6J2
FRMPD2_2, Q68DX3 = molecular target: FRMPD2_2, Q68DX3
MPDZ_10, O75970 = molecular target: T6, MPDZ_10, O75970
T6 sequence (O75970 1624-1722, limits assumed, looked up): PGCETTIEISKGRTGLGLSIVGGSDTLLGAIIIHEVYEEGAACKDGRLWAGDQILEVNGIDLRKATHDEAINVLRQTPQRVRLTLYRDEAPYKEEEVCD

LNX1_1, Q8TBB1 = molecular target: LNX1_1, Q8TBB1
MPDZ_12, O75970 = molecular target: T7, MPDZ_12, O75970
T7 sequence (O75970 1857-1958, limits assumed, looked up): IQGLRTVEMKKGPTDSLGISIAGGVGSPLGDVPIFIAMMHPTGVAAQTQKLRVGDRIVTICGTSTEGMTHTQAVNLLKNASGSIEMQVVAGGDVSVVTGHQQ

APBA2_1, Q99767 = molecular target: T8, APBA2_1, Q99767
T8 sequence (Q99767 563-664, limits assumed, looked up): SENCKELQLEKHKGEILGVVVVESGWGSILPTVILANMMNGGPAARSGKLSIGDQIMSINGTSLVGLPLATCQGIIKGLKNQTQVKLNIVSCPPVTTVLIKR

GRID2IP_1, A4D2P6 = molecular target: GRID2IP_1, A4D2P6
SHANK1, Q9Y566 = molecular target: T9, SHANK1, Q9Y566
T9 sequence (Q9Y566 658-767, limits assumed, looked up): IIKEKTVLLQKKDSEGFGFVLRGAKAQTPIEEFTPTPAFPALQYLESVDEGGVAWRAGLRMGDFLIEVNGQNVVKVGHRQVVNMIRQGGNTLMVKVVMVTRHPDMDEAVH

MAGI3_2, Q5TCQ9 = molecular target: MAGI3_2, Q5TCQ9
ARHGAP21, Q5T5U3 = molecular target: T10, ARHGAP21, Q5T5U3
T10 sequence (Q5T5U3 45-169, limits assumed, looked up): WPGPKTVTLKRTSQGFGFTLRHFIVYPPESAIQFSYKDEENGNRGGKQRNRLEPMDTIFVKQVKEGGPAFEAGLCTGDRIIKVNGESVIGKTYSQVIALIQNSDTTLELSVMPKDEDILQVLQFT

DLG1_3, Q12959 = molecular target: DLG1_3, Q12959
[1] = plain residues with an end cap or a label only (N-terminal biotin on a linker: ahx)
[2] = plain residues with an end cap or a label only (N-terminal biotin on a linker: ttds)

Chain of DLG5_1, Q8TDM6 (Q8TDM6 617-713): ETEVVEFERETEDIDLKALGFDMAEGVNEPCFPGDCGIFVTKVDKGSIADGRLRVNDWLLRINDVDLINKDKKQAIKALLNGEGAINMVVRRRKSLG
Chain of MAGI2_4, Q86UL8 (Q86UL8 772-865): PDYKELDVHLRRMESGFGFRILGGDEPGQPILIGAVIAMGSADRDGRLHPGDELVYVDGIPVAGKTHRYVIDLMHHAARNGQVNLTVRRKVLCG
Chain of GRASP, Q7Z6J2 (Q7Z6J2 96-193): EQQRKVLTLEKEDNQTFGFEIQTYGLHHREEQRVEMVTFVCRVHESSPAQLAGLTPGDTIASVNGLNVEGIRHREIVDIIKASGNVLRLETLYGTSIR
Chain of SCRIB_1, Q14160 (Q14160 718-814): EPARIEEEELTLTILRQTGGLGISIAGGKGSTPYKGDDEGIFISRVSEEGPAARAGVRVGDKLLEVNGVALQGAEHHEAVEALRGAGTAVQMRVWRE
Chain of NHERF4_1, Q86UT5-2 (Q86UT5 other isoform, or with tags, fused parts or gaps): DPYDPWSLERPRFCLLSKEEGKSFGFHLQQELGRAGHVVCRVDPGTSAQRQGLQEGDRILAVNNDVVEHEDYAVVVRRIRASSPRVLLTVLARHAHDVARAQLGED
Chain of AHNAK1, Q09666 (Q09666 4-100): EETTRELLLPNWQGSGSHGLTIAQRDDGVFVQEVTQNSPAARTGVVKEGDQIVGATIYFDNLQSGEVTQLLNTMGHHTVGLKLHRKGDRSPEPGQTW
Chain of LAP2, Q96RT1 (Q96RT1 other isoform, or with tags, fused parts or gaps): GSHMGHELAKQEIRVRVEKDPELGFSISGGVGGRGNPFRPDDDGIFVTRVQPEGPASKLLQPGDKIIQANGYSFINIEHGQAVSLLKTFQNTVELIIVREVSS
Chain of GRID2IP_1, A4D2P6 (A4D2P6 1-87): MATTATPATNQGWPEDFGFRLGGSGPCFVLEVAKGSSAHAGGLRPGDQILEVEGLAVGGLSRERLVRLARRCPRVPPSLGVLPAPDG
Chain of NHERF4_2, Q86UT5 (Q86UT5 220-308): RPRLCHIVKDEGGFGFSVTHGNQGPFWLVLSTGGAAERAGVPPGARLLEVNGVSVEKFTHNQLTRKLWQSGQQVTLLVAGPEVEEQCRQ
Chain of IL16_1, Q14005 (Q14005 210-306): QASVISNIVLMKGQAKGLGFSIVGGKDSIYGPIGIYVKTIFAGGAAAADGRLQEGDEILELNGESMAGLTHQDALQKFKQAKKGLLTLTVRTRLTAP
Chain of MAGI3_2, Q5TCQ9 (Q5TCQ9 398-503): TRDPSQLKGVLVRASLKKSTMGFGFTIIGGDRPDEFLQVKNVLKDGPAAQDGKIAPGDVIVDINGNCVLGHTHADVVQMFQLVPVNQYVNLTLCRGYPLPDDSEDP
Chain of Inadl_9, Q8NI35 (Q8NI35 1530-1615): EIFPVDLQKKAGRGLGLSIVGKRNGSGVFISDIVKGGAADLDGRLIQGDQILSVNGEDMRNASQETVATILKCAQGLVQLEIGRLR
Chain of FRMPD2_2, Q68DX3 (Q68DX3 944-1038): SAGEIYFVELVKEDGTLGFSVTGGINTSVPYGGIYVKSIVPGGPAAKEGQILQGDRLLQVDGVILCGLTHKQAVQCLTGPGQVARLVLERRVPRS
Chain of LNX1_1, Q8TBB1 (Q8TBB1 261-371): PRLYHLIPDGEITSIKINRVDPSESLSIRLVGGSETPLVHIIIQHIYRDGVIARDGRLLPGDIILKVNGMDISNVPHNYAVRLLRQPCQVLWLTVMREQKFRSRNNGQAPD
Chain of DLG1_3, Q12959 (Q12959 457-571): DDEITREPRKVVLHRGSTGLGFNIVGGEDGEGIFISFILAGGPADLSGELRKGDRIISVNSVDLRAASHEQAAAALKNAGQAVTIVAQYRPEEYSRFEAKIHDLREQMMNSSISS

ESLLLGPSNF [SHROOM4, Q9ULL8]
pKd (DLG5_1, Q8TDM6; [1]): below the threshold
pKd (MPDZ_5, O75970; [1]): below the threshold
pKd (SCRIB_1, Q14160; [1]): below the threshold
pKd (MAGI2_4, Q86UL8; [1]): below the threshold
pKd (PARD3B_1, Q8TEW8; [1]): below the threshold
pKd (Inadl_9, Q8NI35; [1]): below the threshold
pKd (NHERF4_2, Q86UT5; [1]): below the threshold
pKd (NHERF4_1, Q86UT5-2; [1]): below the threshold
pKd (RADIL, Q96JH8; [1]): below the threshold
pKd (IL16_1, Q14005; [1]): below the threshold
pKd (GOPC, Q9HD26; [1]): below the threshold
pKd (LAP2, Q96RT1; [1]): below the threshold
pKd (APBA1_1, Q02410; [1]): below the threshold
pKd (AHNAK1, Q09666; [1]): below the threshold
pKd (RAPGEF6, Q8TEU7; [1]): below the threshold
pKd (GRASP, Q7Z6J2; [1]): 4.36
pKd (FRMPD2_2, Q68DX3; [1]): below the threshold
pKd (MPDZ_10, O75970; [1]): below the threshold
pKd (LNX1_1, Q8TBB1; [1]): below the threshold
pKd (MPDZ_12, O75970; [1]): below the threshold
pKd (APBA2_1, Q99767; [1]): below the threshold
pKd (GRID2IP_1, A4D2P6; [1]): below the threshold
pKd (SHANK1, Q9Y566; [1]): 3.53
pKd (MAGI3_2, Q5TCQ9; [1]): below the threshold
pKd (ARHGAP21, Q5T5U3; [1]): below the threshold
pKd (DLG1_3, Q12959; [1]): below the threshold

SDSSGQEYSL [KCTD3, Q9Y597]
pKd (DLG5_1, Q8TDM6; [1]): below the threshold
pKd (MPDZ_5, O75970; [1]): below the threshold
pKd (SCRIB_1, Q14160; [1]): below the threshold
pKd (MAGI2_4, Q86UL8; [1]): below the threshold
pKd (PARD3B_1, Q8TEW8; [1]): below the threshold
pKd (Inadl_9, Q8NI35; [1]): below the threshold
pKd (NHERF4_2, Q86UT5; [1]): below the threshold
pKd (NHERF4_1, Q86UT5-2; [1]): below the threshold
pKd (RADIL, Q96JH8; [1]): below the threshold
pKd (IL16_1, Q14005; [1]): below the threshold
pKd (GOPC, Q9HD26; [1]): below the threshold
pKd (LAP2, Q96RT1; [1]): below the threshold
pKd (APBA1_1, Q02410; [1]): below the threshold
pKd (AHNAK1, Q09666; [1]): below the threshold
pKd (RAPGEF6, Q8TEU7; [1]): below the threshold
pKd (GRASP, Q7Z6J2; [1]): below the threshold
pKd (FRMPD2_2, Q68DX3; [1]): below the threshold
pKd (MPDZ_10, O75970; [1]): 3.56
pKd (LNX1_1, Q8TBB1; [1]): below the threshold
pKd (MPDZ_12, O75970; [1]): below the threshold
pKd (APBA2_1, Q99767; [1]): below the threshold
pKd (GRID2IP_1, A4D2P6; [1]): below the threshold
pKd (SHANK1, Q9Y566; [1]): below the threshold
pKd (MAGI3_2, Q5TCQ9; [1]): below the threshold
pKd (ARHGAP21, Q5T5U3; [1]): below the threshold
pKd (DLG1_3, Q12959; [1]): below the threshold

QRQARSETLV [HPV59-E6, Q81964]
pKd (DLG5_1, Q8TDM6; [2]): below the threshold
pKd (MPDZ_5, O75970; [2]): 3.81
pKd (SCRIB_1, Q14160; [2]): 3.82
pKd (MAGI2_4, Q86UL8; [2]): 5.71
pKd (PARD3B_1, Q8TEW8; [2]): below the threshold
pKd (Inadl_9, Q8NI35; [2]): below the threshold
pKd (NHERF4_2, Q86UT5; [2]): below the threshold
pKd (NHERF4_1, Q86UT5-2; [2]): below the threshold
pKd (RADIL, Q96JH8; [2]): 4.47
pKd (IL16_1, Q14005; [2]): below the threshold
pKd (GOPC, Q9HD26; [2]): 3.92
pKd (LAP2, Q96RT1; [2]): below the threshold
pKd (APBA1_1, Q02410; [2]): below the threshold
pKd (AHNAK1, Q09666; [2]): below the threshold
pKd (RAPGEF6, Q8TEU7; [2]): below the threshold
pKd (GRASP, Q7Z6J2; [2]): below the threshold
pKd (FRMPD2_2, Q68DX3; [2]): 3.95
pKd (MPDZ_10, O75970; [2]): below the threshold
pKd (LNX1_1, Q8TBB1; [2]): below the threshold
pKd (MPDZ_12, O75970; [2]): below the threshold
pKd (APBA2_1, Q99767; [2]): below the threshold
pKd (GRID2IP_1, A4D2P6; [2]): below the threshold
pKd (SHANK1, Q9Y566; [2]): below the threshold
pKd (MAGI3_2, Q5TCQ9; [2]): 6.07
pKd (ARHGAP21, Q5T5U3; [2]): below the threshold
pKd (DLG1_3, Q12959; [2]): 3.82

DKDPHSETAL [TMIGD1, Q6UXZ0]
pKd (DLG5_1, Q8TDM6; [2]): below the threshold
pKd (MPDZ_5, O75970; [2]): below the threshold
pKd (SCRIB_1, Q14160; [2]): 4.64
pKd (MAGI2_4, Q86UL8; [2]): below the threshold
pKd (PARD3B_1, Q8TEW8; [2]): below the threshold
pKd (Inadl_9, Q8NI35; [2]): below the threshold
pKd (NHERF4_2, Q86UT5; [2]): below the threshold
pKd (NHERF4_1, Q86UT5-2; [2]): 3.88
pKd (RADIL, Q96JH8; [2]): below the threshold
pKd (IL16_1, Q14005; [2]): below the threshold
pKd (GOPC, Q9HD26; [2]): below the threshold
pKd (LAP2, Q96RT1; [2]): 3.66
pKd (APBA1_1, Q02410; [2]): below the threshold
pKd (AHNAK1, Q09666; [2]): below the threshold
pKd (RAPGEF6, Q8TEU7; [2]): below the threshold
pKd (GRASP, Q7Z6J2; [2]): below the threshold
pKd (FRMPD2_2, Q68DX3; [2]): below the threshold
pKd (MPDZ_10, O75970; [2]): below the threshold
pKd (LNX1_1, Q8TBB1; [2]): below the threshold
pKd (MPDZ_12, O75970; [2]): below the threshold
pKd (APBA2_1, Q99767; [2]): below the threshold
pKd (GRID2IP_1, A4D2P6; [2]): below the threshold
pKd (SHANK1, Q9Y566; [2]): 4.42
pKd (MAGI3_2, Q5TCQ9; [2]): 4.19
pKd (ARHGAP21, Q5T5U3; [2]): below the threshold
pKd (DLG1_3, Q12959; [2]): below the threshold

SKPTRRETEV [HPV35-E6, P27228]
pKd (DLG5_1, Q8TDM6; [2]): below the threshold
pKd (MPDZ_5, O75970; [2]): below the threshold
pKd (SCRIB_1, Q14160; [2]): 4.56
pKd (MAGI2_4, Q86UL8; [2]): 4.34
pKd (PARD3B_1, Q8TEW8; [2]): below the threshold
pKd (Inadl_9, Q8NI35; [2]): below the threshold
pKd (NHERF4_2, Q86UT5; [2]): below the threshold
pKd (NHERF4_1, Q86UT5-2; [2]): below the threshold
pKd (RADIL, Q96JH8; [2]): below the threshold
pKd (IL16_1, Q14005; [2]): below the threshold
pKd (GOPC, Q9HD26; [2]): below the threshold
pKd (LAP2, Q96RT1; [2]): 3.69
pKd (APBA1_1, Q02410; [2]): below the threshold
pKd (AHNAK1, Q09666; [2]): below the threshold
pKd (RAPGEF6, Q8TEU7; [2]): below the threshold
pKd (GRASP, Q7Z6J2; [2]): below the threshold
pKd (FRMPD2_2, Q68DX3; [2]): below the threshold
pKd (MPDZ_10, O75970; [2]): below the threshold
pKd (LNX1_1, Q8TBB1; [2]): below the threshold
pKd (MPDZ_12, O75970; [2]): below the threshold
pKd (APBA2_1, Q99767; [2]): below the threshold
pKd (GRID2IP_1, A4D2P6; [2]): below the threshold
pKd (SHANK1, Q9Y566; [2]): below the threshold
pKd (MAGI3_2, Q5TCQ9; [2]): 5.39
pKd (ARHGAP21, Q5T5U3; [2]): below the threshold
pKd (DLG1_3, Q12959; [2]): 4.77
